Experimental data reported in patent publication US20230192820A1 (published 2023).

Target: Wild type
Experiment: ELISA

B1: Mab362 (antibody, V domains shown)
VH: QVQLVESGGGVVQPGRSLRLSCAASGFSFSSYGMHWVRQAPGKGLEWVAVIWYDGSDKYYADSVKGRFTISRDNSKNTLYLQLNSLRAEDTAIYYCARERYFDWIFDFWGQGTLVTVSS
VL: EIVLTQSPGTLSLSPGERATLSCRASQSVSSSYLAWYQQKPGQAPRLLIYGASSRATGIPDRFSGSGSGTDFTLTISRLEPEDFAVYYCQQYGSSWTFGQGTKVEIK
EC50: 0.64 µg/mL
